From patent publication US20080207488A1, “Method for Detecting Peptides Comprising a Cross-B Structure” (priority 2005, published 2008)
“Also recorded” adds a separate entry of the source. Each block holds one substance with its values, some of them ahead of it.

Tests used:
[1] = Stability testing of biopharmaceuticals under denaturing conditions (ThT fluorescence, tPA activation); format: physicochemical; conditions: ThT at 25 μg/mL, tPA activation at 100 μg/mL
Method: To mimic accelerated stability testing several therapeutics were exposed to denaturing conditions and assayed for amyloid-like properties before and after treatment by tPA activation assay at 100 μg/mL protein and ThT fluorescence enhancement assay at 25 μg/mL protein. For this purpose, 5 mg/mL Glucagon (Glucagen; Novo Nordisk Farma B.V., Alphen aan de Rijn, The Netherlands) was incubated at 37° C. in 0.01 M HCl for 48 hours. One mg/mL Etanercept (Enbrel; Wyeth Pharmaceuticals B.V., Hoofddorp, The Netherlands) in 67 mM sodium phosphate buffer, 100 mM NaCl pH 7.0 was gradually heated from 30° C. to 85° C. over a period of 12 minutes and afterwards cooled to 4° C. for 5 minutes, this treatment was repeated 4 times. Abciximab (Reopro; Centocor B.V., Leiden, The Netherlands) and Infliximab (Remicade; Schering-Plough B.V., Utrecht, The Netherlands) were incubated at 65° C. for 16 and 72 hours, respectively.

[2] = ThT fluorescence of CpG-ODN-protein mixtures; format: physicochemical; conditions: for increase in ThT fluorescence / ThT fluorescence enhancement: 1 mg ml^−1 protein; for increase in ThT fluorescence: 30 min. at room temperature (FIG. 4D, E); for ThT fluorescence enhancement: overnight
Method: (§1) Fluorescence of ThT-protein/peptide adducts was measured as follows. […] Fluorescence was measured at 485 nm upon excitation at 435 nm. Background signals from buffer, buffer with ThT and protein/peptide solution without ThT were subtracted from corresponding measurements with protein solution incubated with ThT. […] Fluorescence was measured in triplicate on a Hitachi F-4500 fluorescence spectrophotometer (Ltd., Tokyo, Japan).
Enhancement of ThT fluorescence was measured similarly as described above. […]

[3] = ThT fluorescence of LPS-protein mixtures; format: physicochemical; conditions: for ThT fluorescence enhancement vs protein in buffer only: 1 mg ml^−1 protein
Method: as §1
Subsequently, the ability to enhance ThT fluorescence was determined with 40× diluted solution, as described above. […]

[4] = system: human tissue-type plasminogen activator finger EGF (tPA F-EGF) fragment; assay: ELISA, binding of tPA F-EGF to coated (mis)folded proteins; conditions: coated protein, FIG. 7A, I; listed as BSA-AGE
Sequence of human tissue-type plasminogen activator finger EGF (tPA F-EGF) fragment (P00750 39-120 limits assumed): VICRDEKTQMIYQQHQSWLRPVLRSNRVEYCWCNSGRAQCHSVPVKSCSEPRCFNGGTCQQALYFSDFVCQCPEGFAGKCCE
Method: (§2) The plates were blocked using Blocking reagent (Roche 1112589). A dilution series of the protein of interest was applied to the coated proteins and wells were subsequently washed using TBS-T (50 mM Tris pH 7.3, 150 mM NaCl and 0.1% Tween20). Bound protein is detected by the FLAG-tag using 1:3000 anti-FLAG-HRP (Sigma A-8592) in PBS-T, or by 1:1000 Ni-NTA-HRP (Qiagen 34530) in PBS-T. The HRP reaction Is performed using the TMB substrate (Biosource 4501103 or Tebu Bio 101TMB100-500), stopped using 10% H2SO4 and absorbance was measured at 450 nm.

human BiP = target: T1, human BiP (Homo sapiens, UniProt P11021); assay: ELISA, binding of BiP to coated (mis)folded proteins; conditions: coated protein
T1 construct: made in house; host or cells: HEK293E cells, transient transfection, protein purified from the medium
T1 sequence (P11021 19-654): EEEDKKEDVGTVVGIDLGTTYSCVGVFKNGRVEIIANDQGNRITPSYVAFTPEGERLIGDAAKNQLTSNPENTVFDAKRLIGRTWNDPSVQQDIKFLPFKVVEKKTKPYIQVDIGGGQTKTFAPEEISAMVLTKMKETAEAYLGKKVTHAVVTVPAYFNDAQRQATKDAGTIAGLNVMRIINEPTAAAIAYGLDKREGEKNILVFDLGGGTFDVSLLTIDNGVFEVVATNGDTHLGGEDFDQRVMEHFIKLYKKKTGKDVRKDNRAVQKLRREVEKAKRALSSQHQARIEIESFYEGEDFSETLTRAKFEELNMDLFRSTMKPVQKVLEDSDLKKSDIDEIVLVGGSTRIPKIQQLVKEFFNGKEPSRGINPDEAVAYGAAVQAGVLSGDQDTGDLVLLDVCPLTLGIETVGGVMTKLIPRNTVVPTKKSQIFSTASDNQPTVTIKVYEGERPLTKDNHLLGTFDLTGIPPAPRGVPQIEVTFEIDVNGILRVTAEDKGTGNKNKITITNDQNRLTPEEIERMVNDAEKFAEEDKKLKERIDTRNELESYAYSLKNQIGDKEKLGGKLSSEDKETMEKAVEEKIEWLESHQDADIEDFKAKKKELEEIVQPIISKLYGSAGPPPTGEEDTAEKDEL
Method: as §2

LRP cl-IV = target: T2, LRP cl-IV (Homo sapiens, UniProt Q07954); assay: ELISA, binding of LRP cluster IV to misfolded proteins; conditions: 5 μg/ml coated protein
T2 construct: Cluster IV of the low-density lipoprotein (LDL) receptor-related protein (LRP cl-IV) was cloned from complete cDNA of THP1 cells; made in house; host or cells: HEK293E/S cells; culture supernatant used without purification
T2 sequence (Q07954 3332-3778 limits assumed): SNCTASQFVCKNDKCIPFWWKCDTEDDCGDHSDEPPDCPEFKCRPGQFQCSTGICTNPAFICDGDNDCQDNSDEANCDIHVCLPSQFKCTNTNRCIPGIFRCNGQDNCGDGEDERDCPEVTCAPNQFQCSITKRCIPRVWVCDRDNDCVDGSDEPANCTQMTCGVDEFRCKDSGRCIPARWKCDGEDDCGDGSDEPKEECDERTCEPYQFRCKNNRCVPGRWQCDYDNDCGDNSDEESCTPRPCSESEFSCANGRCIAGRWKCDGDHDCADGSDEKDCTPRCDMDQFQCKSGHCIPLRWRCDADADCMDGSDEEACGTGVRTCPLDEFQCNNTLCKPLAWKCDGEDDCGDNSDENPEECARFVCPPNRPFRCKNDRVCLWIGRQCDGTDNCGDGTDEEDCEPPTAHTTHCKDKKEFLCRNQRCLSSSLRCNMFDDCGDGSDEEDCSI
Method: Binding of LRP cl-IV to misfolded protein was determined using an enzyme linked immuno sorbent assay (ELISA) set-up. For this purpose 50 μl of a 5 μg/ml solution of BSA, BSA-AGE, Hb or Hb-AGE or coat buffer (for negative control) was coated for 1 h with motion. Proteins were diluted in coat buffer (100 mM NaHCO3 pH 9.6). The BSA and Hb controls were prepared freshly by dissolving proteins at 1 mg/ml in PBS by rolling for 10 minutes on a roller bank at room temperature, 10 minutes incubation at 37° C. followed by again 10 minutes incubation at the roller bank. Coat controls were performed with anti-glycated protein antibody 4B5, anti-albumin antibody or anti Hb antibody. After coating the plates were washed twice with PBS/0.1% Tween-20 (v/v) and blocked with 300 μl/well blocking reagent (Roche Diagnostics, Almere, The Netherlands) for 1 h at room temperature with motion. […] After five washes with wash buffer binding of antibody was assessed with a secondary antibody. […] After 5 washes with wash buffer, binding of anti-FLAG antibody and secondary antibodies was assessed with 100 μl/well TMB substrate (ready to use from Tebu Bio). […] After ˜2 minutes absorbance was read at 450 nm.

Substance: Abciximab: abciximab, an inhibitor of blood platelet aggregation (ReoPro, Centocor)
amyloid-like properties after exposure to harsh denaturing conditions (low pH, heat) [1]: amyloid-like properties are adopted

Substance: lysozyme: chicken egg-white lysozyme
increased ThT fluorescence ([2]; 1 mg ml^−1 protein exposed to 21.4 μg ml^−1 CPG-ODN (FIG. 4F)): no effect
increase in ThT fluorescence ([2]; 10.4 μg ml^−1 CPG-ODN): approximately 8 times
ThT fluorescence enhancement ([2]; 10.7 μg ml^−1 CPG-ODN): 1.1 factor
ThT fluorescence enhancement ([2]; 21.4 μg ml^−1 CPG-ODN): 1.2 factor
increase in ThT fluorescence ([2]; 21.7 μg ml^−1 CPG-ODN): ~7 times
ThT fluorescence enhancement ([2]; 42.8 μg ml^−1 CPG-ODN): 1.4 factor
ThT fluorescence enhancement ([3]; 200 μg ml^−1 LPS (FIG. 4D, E)): approximately 5 times
ThT fluorescence enhancement ([3]; 400 μg ml^−1 LPS (FIG. 4D, E)): ~11 times
ThT fluorescence enhancement ([3]; 600 μg ml^−1 LPS (FIG. 4D, E)): ~18 times
ThT fluorescence enhancement ([3]; 1 mg ml^−1 protein exposed to 600 μg ml^−1 LPS (FIG. 4C)): approximately 10 times
ThT fluorescence enhancement vs protein in buffer only ([3]; 10 μg ml^−1 LPS (FIG. 4B)): 1.1 times
ThT fluorescence enhancement vs protein in buffer only ([3]; 25 μg ml^−1 LPS (FIG. 4B)): 1.3 times
ThT fluorescence enhancement vs protein in buffer only ([3]; 100 μg ml^−1 LPS (FIG. 4B)): 1.6 times
ThT fluorescence enhancement vs protein in buffer only ([3]; 200 μg ml^−1 LPS (FIG. 4B)): 2.3 times
ThT fluorescence enhancement vs protein in buffer only ([3]; 600 μg ml^−1 LPS (FIG. 4B)): 5.7 times
ThT fluorescence enhancement vs protein in buffer only ([3]; 1200 μg ml^−1 LPS (FIG. 4B)): 13.1 times

binding of BiP (detection anti-FLAG-HRP) (human BiP): high affinity
binding of BiP (detection Ni-NTA-HRP) (human BiP; FIG. 7A): low affinity
binding of LRP cl-IV (LRP cl-IV): binds specifically
Substance: albumin-AGE: advanced glycation end-product modified bovine serum albumin
binding of tPA F-EGF [4]: High binding affinities; also recorded: high affinity binding
